From US20240400614A1, “CLEAVABLE PEPTIDES AND METHODS OF USE THEREOF” (Bright Peak Therapeutics AG, priority 2023, published 2024)
Square brackets hold non-standard residues; d marks the D form. Ends that are not written are not given here. Tyr(3-NO2) = N[C@@H](Cc1ccc(O)c([N+](=O)[O-])c1)C(=O)O; Nle = CCCC[C@H](N)C(=O)O; 2Abz = Nc1ccccc1C(=O)O

How the values were obtained:
Type in all cases: biochemical
matriptase = target: T1, matriptase (Homo sapiens, UniProt Q9Y5Y6); assay: FRET peptide cleavage efficiency with matriptase
T1 construct: purchased R&D Systems 3946-SEB
T1 sequence (Q9Y5Y6 615-855 limits assumed): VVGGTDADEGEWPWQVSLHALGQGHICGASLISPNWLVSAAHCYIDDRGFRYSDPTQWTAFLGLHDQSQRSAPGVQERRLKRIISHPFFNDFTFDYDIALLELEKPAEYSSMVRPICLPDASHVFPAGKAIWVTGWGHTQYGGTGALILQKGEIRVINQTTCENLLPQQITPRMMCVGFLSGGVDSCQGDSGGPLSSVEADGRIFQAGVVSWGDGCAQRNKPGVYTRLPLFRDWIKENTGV

MMP-9 = target: T2, MMP-9 (Homo sapiens, UniProt P14780); assay: FRET peptide cleavage efficiency with MMP-9 (standard pH 7.5; also pH 6.5)
T2 construct: purchased SIGMA PF024
T2 sequence (P14780 94-707): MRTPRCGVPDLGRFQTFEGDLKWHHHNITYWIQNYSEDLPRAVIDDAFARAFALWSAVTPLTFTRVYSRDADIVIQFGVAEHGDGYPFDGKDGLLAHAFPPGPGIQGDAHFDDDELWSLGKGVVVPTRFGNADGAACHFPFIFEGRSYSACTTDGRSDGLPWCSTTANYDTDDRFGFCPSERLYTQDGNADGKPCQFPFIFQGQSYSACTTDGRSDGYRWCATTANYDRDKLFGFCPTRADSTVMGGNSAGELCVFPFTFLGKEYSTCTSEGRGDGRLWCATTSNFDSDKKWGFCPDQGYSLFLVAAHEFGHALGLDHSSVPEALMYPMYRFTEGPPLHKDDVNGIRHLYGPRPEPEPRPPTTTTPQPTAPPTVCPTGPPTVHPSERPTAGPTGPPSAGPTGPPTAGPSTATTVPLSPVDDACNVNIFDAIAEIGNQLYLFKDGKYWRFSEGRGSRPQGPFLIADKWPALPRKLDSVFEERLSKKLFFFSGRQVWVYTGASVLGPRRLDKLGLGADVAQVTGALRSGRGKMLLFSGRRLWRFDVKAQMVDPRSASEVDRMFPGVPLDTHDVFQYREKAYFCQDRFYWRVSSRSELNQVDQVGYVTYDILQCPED

uPA = uPA (Homo sapiens, UniProt P00749); assay: FRET peptide cleavage efficiency with uPA
MMP-2 = target: T3, MMP-2 (Homo sapiens, UniProt P08253); assay: FRET peptide cleavage efficiency with MMP-2
T3 construct: purchased SIGMA PF023
T3 sequence (P08253 110-660): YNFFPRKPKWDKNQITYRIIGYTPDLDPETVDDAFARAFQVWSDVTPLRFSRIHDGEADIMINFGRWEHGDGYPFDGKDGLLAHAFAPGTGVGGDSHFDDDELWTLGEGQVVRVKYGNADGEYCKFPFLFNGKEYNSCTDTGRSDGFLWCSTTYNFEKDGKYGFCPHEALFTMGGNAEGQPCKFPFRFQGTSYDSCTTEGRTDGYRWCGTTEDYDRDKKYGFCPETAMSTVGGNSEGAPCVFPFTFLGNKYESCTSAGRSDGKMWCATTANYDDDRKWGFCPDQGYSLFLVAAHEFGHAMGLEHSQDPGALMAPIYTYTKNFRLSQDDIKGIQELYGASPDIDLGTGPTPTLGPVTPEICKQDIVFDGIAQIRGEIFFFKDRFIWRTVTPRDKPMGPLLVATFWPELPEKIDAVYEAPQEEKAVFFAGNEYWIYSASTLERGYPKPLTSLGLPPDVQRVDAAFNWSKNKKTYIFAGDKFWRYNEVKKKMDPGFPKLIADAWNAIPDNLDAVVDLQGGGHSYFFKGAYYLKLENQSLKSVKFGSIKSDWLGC

MMP-7 = target: T4, MMP-7 (Homo sapiens, UniProt P09237); assay: FRET peptide cleavage efficiency with MMP-7 (standard pH 7.5; also pH 6.5)
T4 construct: purchased SIGMA CC1059
T4 sequence (P09237 95-267): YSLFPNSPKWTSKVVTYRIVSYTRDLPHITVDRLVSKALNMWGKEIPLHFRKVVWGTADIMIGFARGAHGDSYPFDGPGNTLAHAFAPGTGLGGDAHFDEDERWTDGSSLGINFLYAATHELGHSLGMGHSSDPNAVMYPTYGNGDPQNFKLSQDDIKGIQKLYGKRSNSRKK

[1] = 200 uM linker, 1 ug/ml protease, 37° C., buffer B pH 9.0
[2] = 200 uM linker, 1 ug/ml protease, 37° C., buffer A pH 8.5
[3] = t = 15 min, 200 uM linker, 1 ug/ml protease, 37° C., buffer C pH 7.5
[4] = t = 60 min, 200 uM linker, 1 ug/ml protease, 37° C., buffer C pH 7.5
[5] = t = 120 min, 200 uM linker, 1 ug/ml protease, 37° C., buffer C pH 7.5
[6] = t = 15 min, standard conditions (Table 8)
[7] = t = 60 min, standard conditions (Table 8)
[8] = t = 120 min, standard conditions (Table 8)

Row | Substance | % cleavage Matriptase t = 15 min (matriptase; [1]) [%] | % cleavage Matriptase t = 60 min (matriptase; [1]) [%] | % cleavage Matriptase t = 120 min (matriptase; [1]) [%] | % cleavage MMP-9 t = 15 min (MMP-9; t = 15 min (Table 9)) [%] | % cleavage MMP-9 t = 60 min (MMP-9; t = 60 min (Table 9)) [%] | % cleavage MMP-9 t = 120 min (MMP-9; t = 120 min (Table 9)) [%] | % cleavage uPA t = 15 min (uPA; [2]) [%] | % cleavage uPA t = 60 min (uPA; [2]) [%] | % cleavage uPA t = 120 min (uPA; [2]) [%] | % cleavage MMP-2 t = 15 min (MMP-2; t = 15 min (Table 9)) [%] | % cleavage MMP-2 t = 15 min (MMP-2; [3]) [%] | % cleavage MMP-2 t = 60 min (MMP-2; t = 60 min (Table 9)) [%] | % cleavage MMP-2 t = 60 min (MMP-2; [4]) [%] | % cleavage MMP-2 t = 120 min (MMP-2; t = 120 min (Table 9)) [%] | % cleavage MMP-2 t = 120 min (MMP-2; [5]) [%] | % cleavage MMP-7 t = 15 min (MMP-7; t = 15 min (Table 9)) [%] | % cleavage MMP-7 t = 60 min (MMP-7; t = 60 min (Table 9)) [%] | % cleavage MMP-7 t = 120 min (MMP-7; t = 120 min (Table 9)) [%] | % cleavage Matriptase t = 15 min (matriptase; standard conditions (Table 8)) [%] | % cleavage Matriptase t = 60 min (matriptase; standard conditions (Table 8)) [%] | also measured
1 | RGRRVANYFGKL ([2Abz]RGRRVANYFGKL[Tyr(3-NO2)]-NH2) [LNK055] | 67 | 100 | 100 | 35 | 81 | 100 | 2 | 4 | 8 | 85 | 85 | 100 | 100 | 100 | 100 | 0 | 0 | 0 | – | – | –
2 | RGRRVANLVG ([2Abz]RGRRVANLVG[Tyr(3-NO2)]-NH2) [LNK033] | – | – | – | 81 | 100 | 100 | – | – | – | 87 | – | 100 | – | 100 | – | 30 | 86 | 98 | 100 | 100 | % cleavage Matriptase t = 120 min (matriptase; standard conditions (Table 8)): 100%; % cleavage MMP-9 t = 15 min (MMP-9; [6]): 81%; % cleavage MMP-9 t = 60 min (MMP-9; [7]): 100%; % cleavage MMP-9 t = 120 min (MMP-9; [8]): 100%; % vcleavage uPA t = 15 min (uPA; standard conditions (Table 8)): 1%; % cleavage uPA t = 60 min (uPA; standard conditions (Table 8)): 2%; % cleavage uPA t = 120 min (uPA; standard conditions (Table 8)): 3%; % cleavage MMP-2 t = 60 min (MMP-2; [7]): 100%; % cleavage MMP-2 t = 120 min (MMP-2; [8]): 100%; % cleavage MMP-7 t = 15 min (MMP-7; [6]): 30%; % cleavage MMP-7 t = 60 min (MMP-7; [7]): 86%; % cleavage MMP-7 t = 120 min (MMP-7; [8]): 98%
3 | SGRPLGYFGKL ([2Abz]SGRPLGYFGKL[Tyr(3-NO2)]-NH2) [LNK056] | 0 | 0 | 0 | 32 | 100 | 100 | 0 | 0 | 0 | 75 | 75 | 100 | 100 | 100 | 100 | 0 | 0 | 0 | – | – | –
4 | SGRVY-Nle-LQG ([2Abz]SGRVY[Nle]LQG[Tyr(3-NO2)]-NH2) [LNK045] | – | – | – | 0 | 0 | 0 | – | – | – | 0 | – | 0 | – | 0 | – | 0 | 0 | 0 | 0 | 0 | % cleavage Matriptase t = 120 min (matriptase; standard conditions (Table 8)): 0%; % cleavage MMP-9 t = 15 min (MMP-9; [6]): 0%; % cleavage MMP-9 t = 60 min (MMP-9; [7]): 0%; % cleavage MMP-9 t = 120 min (MMP-9; [8]): 0%; % vcleavage uPA t = 15 min (uPA; standard conditions (Table 8)): 0%; % cleavage uPA t = 60 min (uPA; standard conditions (Table 8)): 0%; % cleavage uPA t = 120 min (uPA; standard conditions (Table 8)): 0%; % cleavage MMP-2 t = 60 min (MMP-2; [7]): 0%; % cleavage MMP-2 t = 120 min (MMP-2; [8]): 0%; % cleavage MMP-7 t = 15 min (MMP-7; [6]): 0%; % cleavage MMP-7 t = 60 min (MMP-7; [7]): 0%; % cleavage MMP-7 t = 120 min (MMP-7; [8]): 0%
5 | SGRVANYFGKL ([2Abz]SGRVANYFGKL[Tyr(3-NO2)]-NH2) [LNK054] | 0 | 0 | 0 | 49 | 100 | 100 | 33 | 100 | 100 | 78 | 78 | 100 | 100 | 100 | 100 | 0 | 0 | 0 | – | – | –
6 | SGRVAPY-Nle-LQG ([2Abz]SGRVAPY[Nle]LQG[Tyr(3-NO2)]-NH2) [LNK043] | – | – | – | 32 | 93 | 100 | – | – | – | 34 | – | 78 | – | 91 | – | 61 | 100 | 100 | 24 | 73 | % cleavage Matriptase t = 120 min (matriptase; standard conditions (Table 8)): 100%; % cleavage MMP-9 t = 15 min (MMP-9; [6]): 32%; % cleavage MMP-9 t = 60 min (MMP-9; [7]): 93%; % cleavage MMP-9 t = 120 min (MMP-9; [8]): 100%; % vcleavage uPA t = 15 min (uPA; standard conditions (Table 8)): 0%; % cleavage uPA t = 60 min (uPA; standard conditions (Table 8)): 0%; % cleavage uPA t = 120 min (uPA; standard conditions (Table 8)): 0%; % cleavage MMP-2 t = 60 min (MMP-2; [7]): 78%; % cleavage MMP-2 t = 120 min (MMP-2; [8]): 91%; % cleavage MMP-7 t = 15 min (MMP-7; [6]): 61%; % cleavage MMP-7 t = 60 min (MMP-7; [7]): 100%; % cleavage MMP-7 t = 120 min (MMP-7; [8]): 100%
